Data as given in article PMC5497220 (2017).
Where no end group is shown, it is not given here.

Biological target: T1, Histone H3 (4-10) K9ac peptide 4-10 (Homo sapiens, UniProt P68431, not fully specified (residue 7))
T1 chain: TKQTARK
Experiment: ITC

- Kd: 30.1 µM
B1: ENL (protein)
chain: MDNQCTVQVRLELGHRAQLRKKPTTEGFTHDWMVFVRGPEQCDIQHFVEKVVFWLHDSFPKPRRVCKEPPYKVEESGYAGFIMPIEVHFKNKEEPRKVCFTYDLFLNLEGNPPVNHLRCEKLTFNNPTTEFRYKLLRAGGVMVMPEGADTVSRPSPDYPMLPTIPLSAFSDPKKTKPSHGSKDANKESSKTSKPHKVTKEHRERPRKDSESKSSSKELEREQAKSSKDTSRKLGEGRLPKEEKAPPPKAAFKEPKMALKETKLESTSPKGGPPPPPPPPPRASSKRPATADSPKPSAKKQKKSSSKGSRSAPGTSPRTSSSSSFSDKKPAKDKSSTRGEKVKAESEPREAKKALEVEESNSEDEASFKSESAQSSPSNSSSSSDSSSDSDFEPSQNHSQGPLRSMVEDLQSEESDEDDSSSGEEAAGKTNPGRDSRLSFSDSESDNSADSSLPSREPPPPQKPPPPNSKVSGRRSPESCSKPEKILKKGTYDKAYTDELVELHRRLMALRERNVLQQIVNLIEETGHFNVTNTTFDFDLFSLDETTVRKLQSCLEAVAT
